Among the data in article doi:10.1101/2024.10.05.616753 are stoichiometry N values, retold here.

For orientation: stoichiometry N means the number of molecules, sites or subunits per partner or assembly.

The target in the assay is T1, recombinant human C-reactive protein (human), P02741.
T1 chain: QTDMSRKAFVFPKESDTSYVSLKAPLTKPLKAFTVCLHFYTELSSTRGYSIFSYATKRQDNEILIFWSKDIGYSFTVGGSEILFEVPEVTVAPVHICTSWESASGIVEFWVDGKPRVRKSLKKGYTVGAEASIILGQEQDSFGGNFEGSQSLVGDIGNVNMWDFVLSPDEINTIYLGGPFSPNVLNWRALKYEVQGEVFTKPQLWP
As to the kind of experiment: cryo-EM structure. As to conditions: remark: other sources report otherwise.

B1: recombinant human C-reactive protein, P02741-1 19-224 (natural protein)
chain: QTDMSRKAFVFPKESDTSYVSLKAPLTKPLKAFTVCLHFYTELSSTRGYSIFSYATKRQDNEILIFWSKDIGYSFTVGGSEILFEVPEVTVAPVHICTSWESASGIVEFWVDGKPRVRKSLKKGYTVGAEASIILGQEQDSFGGNFEGSQSLVGDIGNVNMWDFVLSPDEINTIYLGGPFSPNVLNWRALKYEVQGEVFTKPQLWP
On to B1, for which the stoichiometry N came to 5.
